Holding throughout (experiment): BLI
In general terms: In BLI a coated tip is dipped into the sample, and binding shifts an interference pattern.

Data set [1] has as its target T1, MDA5 WT (dL2) del646-663 (Mus musculus) (UniProt Q8R5F7).
T1 sequence: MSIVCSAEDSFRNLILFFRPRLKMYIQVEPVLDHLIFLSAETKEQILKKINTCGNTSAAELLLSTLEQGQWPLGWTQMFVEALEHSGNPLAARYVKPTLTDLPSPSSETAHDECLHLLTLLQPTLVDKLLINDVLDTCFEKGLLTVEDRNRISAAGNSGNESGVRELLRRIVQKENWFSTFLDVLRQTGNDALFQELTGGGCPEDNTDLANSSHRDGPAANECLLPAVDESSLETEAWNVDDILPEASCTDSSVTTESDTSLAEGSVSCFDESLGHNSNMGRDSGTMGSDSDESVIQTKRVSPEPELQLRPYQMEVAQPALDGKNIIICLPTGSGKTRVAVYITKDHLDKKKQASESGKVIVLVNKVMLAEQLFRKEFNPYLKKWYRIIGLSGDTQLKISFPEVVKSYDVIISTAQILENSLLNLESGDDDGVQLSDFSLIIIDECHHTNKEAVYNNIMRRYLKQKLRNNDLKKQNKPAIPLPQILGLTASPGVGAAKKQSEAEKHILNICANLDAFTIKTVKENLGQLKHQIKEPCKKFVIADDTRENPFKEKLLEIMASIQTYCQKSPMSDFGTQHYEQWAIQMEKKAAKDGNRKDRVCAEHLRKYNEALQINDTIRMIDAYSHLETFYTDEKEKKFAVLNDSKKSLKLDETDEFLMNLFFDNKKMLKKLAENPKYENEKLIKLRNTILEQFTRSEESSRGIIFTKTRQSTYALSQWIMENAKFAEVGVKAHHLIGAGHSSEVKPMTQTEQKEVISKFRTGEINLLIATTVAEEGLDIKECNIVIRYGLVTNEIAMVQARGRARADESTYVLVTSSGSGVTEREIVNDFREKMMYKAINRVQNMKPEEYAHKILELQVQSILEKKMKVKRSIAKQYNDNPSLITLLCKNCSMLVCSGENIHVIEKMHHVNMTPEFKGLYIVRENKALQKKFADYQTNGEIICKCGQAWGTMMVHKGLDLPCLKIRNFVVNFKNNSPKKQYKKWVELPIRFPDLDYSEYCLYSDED
The settings on record: 3'-biotin, BLI and EMSA: 20 mM Hepes pH 7.4, 0.15 M KCl, 1 mM TCEP, EMSA 15 min at 4 C with 1 uM protein and 100 ng nucleic acid, BLI with 0.1 or 1 uM protein …. A general note: In EMSA bound probe runs differently from free probe, usually more slowly.

The target in data set [2] is MDA5 WT (dL2);LGP2 K30G del646-663 (Mus musculus;Mus musculus) (UniProt Q8R5F7). The settings on record: MDA5-LGP2 K30G mixture; 3'-biotin; BLI and EMSA: 20 mM Hepes pH 7.4, 0.15 M KCl, 1 mM TCEP; EMSA 15 min at 4 C with 1 uM protein and 100 ng nucleic acid; BLI with 0.1 or 1 uM protein ….
For a further data set, the system named is LGP2 K30G (Mus musculus). Conditions: no ATP stated; 3'-biotin; BLI and EMSA: 20 mM Hepes pH 7.4, 0.15 M KCl, 1 mM TCEP; EMSA 15 min at 4 C with 1 uM protein and 100 ng nucleic acid; BLI with 0.1 or 1 uM protein ….
The next data set concerns LGP2 WT (Mus musculus). The settings on record: 3'-biotin, BLI and EMSA: 20 mM Hepes pH 7.4, 0.15 M KCl, 1 mM TCEP, EMSA 15 min at 4 C with 1 uM protein and 100 ng nucleic acid, BLI with 0.1 or 1 uM protein ….
Data set [3] concerns the target MDA5 WT (dL2);LGP2 WT del646-663 (Mus musculus;Mus musculus) (UniProt Q8R5F7). Conditions: MDA5-LGP2 mixture, apparent Kd; 3'-biotin; BLI and EMSA: 20 mM Hepes pH 7.4, 0.15 M KCl, 1 mM TCEP; EMSA 15 min at 4 C with 1 uM protein and 100 ng nucleic …; BLI with 0.1 or 1 uM protein, temperature.

40-nt ssRNA, 3'-biotin: the Kd was found to be 2600 nM in data set [1] and 1840 nM in data set [2].

300-bp dsRNA, 3'-biotin displayed a Kd in data set [1] of 1310 nM.

As for 1-kb dsRNA, 3'-biotin, the Kd turned out to be 1300 nM in the data set with LGP2 K30G (Mus musculus); 48 nM in the data set with LGP2 WT (Mus musculus); 70 nM in the data set with LGP2 WT (Mus musculus) (no ATP stated); 1300 nM in data set [1] (no ATP stated); 520 nM in data set [3].

The values above are taken from article PMC10909783.
